# According to patent US11124785B2, “Rothia subtilisins, S8A family proteases, as therapeutic enzymes for application in gluten intolerance disorders” (TRUSTEES OF BOSTON UNIVERSITY, priority 2016, dated 2021):
# Tests used:
# mixed gliadins = experiment: Degradation of mixed gliadins (SDS-PAGE); format: biochemical, wheat; conditions: gliadins 250 μg/ml; NattoK 57 μg/ml 0-120 min and dilution series 3.5-0.06 μg/ml 30 min
# Procedure: FIG. 5A is a representative SDS-PAGE gel of non-digested gliadins (control) and Rmep-treated gliadins. Gliadins (250 μg/ml) in 50 mM Tris/HCl pH 8.0 were incubated with Rmep at 57 μg/ml. After 0, 15 min, 30 min and 2 h incubation 100 μl aliquots were removed, boiled and analyzed by SDS-PAGE and stained with COOMASSIE Brilliant Blue. The bold arrow (left) points to the position of the major band in the gliadin preparation; the thin arrow (right) to the 125 kDa band in the Rmep preparation, and the dotted arrows (right) to the gliadin degradation fragments.
# FIG. 6A is a representative SDS-PAGE gel of non-digested gliadins (control) and subtilisin A-treated gliadins. Gliadins (250 μg/ml) in 50 mM Tris/HCl pH 8.0 were incubated with subtilisin A at 57 μg/ml. Experiments were conducted as described in the legend of FIG. 5 with subtilisin A instead of Rmep.
# FIG. 8A is a representative SDS-PAGE gel of non-digested gliadins (control) and NattoK-treated gliadins. Mixed gliadins (G, 250 μg/ml) were incubated with NattoK (57 μg/ml) for 0, 15, 30 and 120 min. Left four lanes: controls without enzyme or gliadins, respectively, each at t=0 and 120 min. Arrow points to the major components in the gliadin mixture represented by α and γ-gliadins containing most of the immunogenic epitopes.
# (§1) Degradation of mixed gliadins and the 33-mer peptide—Mixed gliadins were obtained from Sigma. A synthetic highly immunogenic α-gliadin derived 33-mer peptide (26) was synthesized at a purity of >90% (21st Century Biochemicals). Mixed gliadins or the 33-mer peptide (each at final concentration 250 μg/ml) were incubated with Rmep or subtilisin A (each at 57 μg/ml) in 50 mM TrisHCl, pH 8.0. After t=0, 15 min, 30 min, and 2 h, 100 μl sample aliquots were removed and boiled. Gliadin degradation was assessed by 4-12% SDS-PAGE followed by Coomassie staining, and 33-mer degradation was determined by RP-HPLC.
# Suc-AAPF-pNA = experiment: Hydrolysis of paranitroanilide-derivatized substrate Suc-AAPF-pNA; format: biochemical; conditions: substrate 200 μM; enzyme 1 μg/ml (NattoK: dilution series); 50 mM TrisHCl pH 8.0, 37° C.
# Procedure: FIG. 4A and FIG. 4B are representative graphs of the hydrolysis of the substrates: Suc-AAPF-pNA (SEQ ID NO: 4), Z-YPQ-pNA, and Z-LPY-pNA, each at 200 μM, by Rmep and subtilisin A, respectively, each at 1 μg/ml.
# FIG. 8C show a representative graph of the hydrolysis of the substrate, Suc-AAPF-pNA (SEQ ID NO: 4), with a dilution series of NattoK. Suc-AAPF-pNA (SEQ ID NO: 4) was incubated […]. Hydrolysis was measured at 405 nm.
# Hydrolysis of paranitroanilide-derivatized substrates—Paranitroanilide (pNA)-derivatized tripeptide substrates were chemically synthesized at >90% purity (21st Century Biochemicals, Marlborough, Mass.). The substrates obtained were Z-YPQ-pNA, Z-QQP-pNA, Z-LPY-pNA, Z-PFP-pNA, Z-PPF-pNA, where Z=benzyloxycarbonyl, Y=tyrosine, P=proline, Q=glutamine, L=leucine, and F=phenylalanine Suc-AAPF-pNA (SEQ ID NO: 4) was obtained from Sigma, where Suc=N-succinyl and A=alanine. The peptides were dissolved in 75-100% DMSO at 10 mM, and were used at a final concentration of 200 μM in 50 mM TrisHCl pH 8.0. Purified Rothia enzyme or subtilisin A from Bacillus licheniformis (Sigma) were tested at final concentrations of 1 μg/ml. Some experiments were conducted in the presence of inhibitors 4-(2-Aminoethyl) benzenesulfonyl fluoride (AEBSF), Aprotinin, E-64, EDTA, phenylmethanesulfonyl fluoride (PMSF) and Eglin C, which were tested at final concentrations of 10 mM, 0.08 mM, 0.1 mM, 1.5 mM, 1 mM, and 0.06-1.2 μM, respectively. Enzymes were preincubated with the inhibitors for 20 min before adding Suc-AAPF-pNA (SEQ ID NO: 4). Substrate hydrolysis was monitored for 10 h at 405 nm using a Genios microtiter plate reader (Tecan, Männedorf, Switzerland) in the kinetic mode at 37° C.
# wheat ATI proteins = experiment: Degradation of amylase-trypsin inhibitors (SDS-PAGE); format: biochemical; conditions: ATIs 500 μg/ml
# Procedure: (§2) FIGS. 15A-15F show effective ATI degradation by subtilisins from B. subtilis (nattokinase). […] ATI (500 μg/ml) incubated with Rmep from R. mucilaginosa (FIG. 15A) or nattokinase from B. subtilis (FIG. 15C) at 50, 25, or 10 μg/ml; FIGS. 15B and 15D, Gliadins (500 μg/ml) incubated with Rmep (FIG. 15B) or nattokinase (FIG. 15D) at 25 μg/ml. FIGS. 15E and 15F, ATIs incubated with control heat inactivated enzymes, Rmep (FIG. 15E) or nattokinase (FIG. 15F).
# (§3) ATIs were isolated from wheat cultivars as described^3. They were incubated at a final concentration of 500 μg/ml with 10, 25 or 50 μg/ml Rmep (from R. mucilaginosa), or nattokinase (from B. subtilis). The controls incubations were carried out with heat-inactivated Rmep and nattokinase. Experiments were conducted in 50 mM Tris-HCl, pH 8.0. After 0, 15 min, 30 min, 1 h, and 4 h incubation, 20 μl aliquots were removed, mixed with SDS-sample buffer, heated at 85° C. for 5 min and analyzed by 4-12% SDS PAGE. Proteins were visualized with Coomassie Blue staining.
# [1] = tested on: α-gliadin derived 33-mer peptide; experiment: Degradation of the 33-mer peptide (RP-HPLC); format: biochemical; conditions: 33-mer 250 μg/ml, NattoK 57 μg/ml, 0-120 min; large fragment remained
# Procedure: FIG. 8D is a representative chromatogram of the RP-HPLC analysis of the degradation of the gliadin-derived 33-mer (250 μg/ml) incubated for 0, 15, 30 and 120 min with NattoK 57 μg/ml).
# as §1
# Reversed-phase high performance liquid chromatography (RP-HPLC)—Separation of the 33-mer peptide and its fragments was achieved by RP-HPLC, using buffer A (0.1% trifluoroacetic acid) and buffer B (0.1% trifluoroacetic acid in 80% acetonitrile) at a gradient of 0-55% buffer B over 75 min time interval. The equipment used was an HPLC Model 715 (Gilson, Middleton, Wis.) and a C-18 column (TSK-GEL […], ODS-120T, TOSOHaas, Montgomeryville, Pa.) (22, 25).
# [2] = tested on: R5 epitopes (QQPFP and related pentapeptides) in mixed gliadins; experiment: R5 ELISA, gluten epitope elimination in gliadin digests; format: biochemical; conditions: gliadins 250 μg/ml, NattoK 57 μg/ml, 0-120 min
# Procedure: FIG. 8E and FIG. 8F show the assessment of the survival of epitopes in the gliadin-NattoK degradation mixture employing the R5 ELISA (FIG. 8E) or G12 ELISA (FIG. 8F) assays. Epitope abolishment in Mixed gliadins (250 μg/ml) were incubated with NattoK (57 μg/ml) for 0, 15, 30 and 120 min and then assayed by the R5 ELISA or G12 ELISA.
# R5 and G12 ELISA assays—Gluten epitope elimination in the gliadin-Rmep and gliadin-subtilisin A digests was assessed using two sandwich ELISA assays employing the R5 monoclonal antibody (RIDASCREEN Gliadin, R-Biopharm, Darmstadt, Germany) or the G12 monoclonal antibody (AgraQuant® ELISA Gluten G12, Romer labs, Union, Mo.). To prevent high background values, the R5 plate wells were blocked with 1% skim milk in PBS prior to incubation with the samples. The assays were performed according to the manufacturers' instructions and as described (21, 24).
# To further investigate this, the time courses of degradation of mixed gliadins and the highly immunogenic 33-mer α-gliadin peptide were determined. Furthermore, epitope elimination was monitored by two ELISA assays employing the R5 antibody recognizing QQPFP (SEQ ID NO: 40) and related pentapeptides (27, 28) and the G12 antibody recognizing QPQLPY (SEQ ID NO: 22) contained in the 33-mer peptide (29, 30). Data obtained with Rmep are shown in FIG. 5, and with subtilisin A in FIG. 6.
# gliadins = experiment: Gliadin degradation control of Example 3 (SDS-PAGE); format: biochemical; conditions: gliadins 500 μg/ml, enzyme 25 μg/ml, pH 8.0
# Procedure: as §2, §3
molecule,measurement,setting,value
"NattoK: nattokinase, a 27.7 kDa subtilisin enzyme from B. subtilis, available in pure form as a dietary supplement (protein, listed as Bacillus subtilis) MRSKKLWISLLFALTLIFTMAFSNMSAQAAGKSSTEKKYIVGFKQTMSAMSSAKKKDVISEKGGKVQKQFKYVNAAAATLDEKAVKELKKDPSVAYVEEDHIAHEYAQSVPYGISQIKAPALHSQGYTGSNVKVAVIDSGIDSSHPDLNVRGGASFVPSETNPYQDGSSHGTHVAGTIAALNNSIGVLGVAPSASLYAVKVLDSTGSGQYSWIINGIEWAISNNMDVINMSLGGPTGSTALKTVVDKAVSSGIVVAAAAGNEGSSGSTSTVGYPAKYPSTIAVGAVNSSNQRASFSSVGSELDVMAPGVSIQSTLPGGTYGAYNGTSMATPHVAGAAALILSKHPTWTNAQVRDRLESTATYLGNSFYYGKGLINVQAAAQ",degradation of mixed gliadins,mixed gliadins,degraded gliadins effectively
same,hydrolysis of Suc-AAPF-pNA,Suc-AAPF-pNA,hydrolyzed
same,ATIs degraded after 4 h incubation with 10 μg/ml enzyme,"wheat ATI proteins; 10 μg/ml enzyme, 4 h",Approximately 50%
same,ATIs degraded after 1 h incubation with 50 μg/ml enzyme,"wheat ATI proteins; 50 μg/ml enzyme, 1 h",Approximately 50%
same,degradation of wheat ATI proteins,"wheat ATI proteins; enzyme 10, 25 or 50 μg/ml, pH 8.0, up to 4 h",susceptible to proteolysis
same,degradation of the 33-mer peptide,[1],degraded the 33-mer peptide
same,abolishment of R5 epitopes,[2],abolished
same,degradation of gliadins,gliadins,rapidly degraded
